Drawing on paper PMC2789033, this text covers stoichiometry N and dimer fraction for one substance.

In general, stoichiometry N refers to the number of molecules, sites or subunits per partner or assembly.

The target in assay [1] is F5/8C module of LamA (Paenibacillus β-1,3-glucanase), residues 1636-1793 (Paenibacillus sp. BCRC 17245). Nature of the assay: cross-linking; protein 0.65 mg/mL, 0.05% glutaraldehyde, room temperature, 1 h, 12% SDS-PAGE.
Assay [2] has the same target. Nature of the assay: SEC; Sephacryl S-300 gel filtration column (Hiprep 16/60), 10 mM sodium acetate pH 5.8, 10% glycerol; monomer to dimer. (In general: In gel filtration, larger molecules generally elute earlier.)
The target is the same in assay [3]. Description: AUC; sedimentation velocity, 20°C, 42000 rpm, protein 0.17 mg/mL in 10 mM phosphate pH 7.0, 10% glycerol; c(s) by Sedfit94; monomer to dimer.

For the substance “F5/8C module of LamA (Paenibacillus β-1,3-glucanase), residues 1636-1793 (domain or fragment)”, the stoichiometry N in assay [1], in assay [2] and in assay [3] was 2 each time. The dimer fraction in assay [2] and in assay [3] was 15% in each case.
